# Molecular target: Miro1-ABC (aa 1-592), C-terminal 6xHis-tag (human, UniProt Q8IXI2 1-592)
# Assay: pull-down
# Chain of Miro1-ABC (aa 1-592), C-terminal 6xHis-tag (Q8IXI2 1-592): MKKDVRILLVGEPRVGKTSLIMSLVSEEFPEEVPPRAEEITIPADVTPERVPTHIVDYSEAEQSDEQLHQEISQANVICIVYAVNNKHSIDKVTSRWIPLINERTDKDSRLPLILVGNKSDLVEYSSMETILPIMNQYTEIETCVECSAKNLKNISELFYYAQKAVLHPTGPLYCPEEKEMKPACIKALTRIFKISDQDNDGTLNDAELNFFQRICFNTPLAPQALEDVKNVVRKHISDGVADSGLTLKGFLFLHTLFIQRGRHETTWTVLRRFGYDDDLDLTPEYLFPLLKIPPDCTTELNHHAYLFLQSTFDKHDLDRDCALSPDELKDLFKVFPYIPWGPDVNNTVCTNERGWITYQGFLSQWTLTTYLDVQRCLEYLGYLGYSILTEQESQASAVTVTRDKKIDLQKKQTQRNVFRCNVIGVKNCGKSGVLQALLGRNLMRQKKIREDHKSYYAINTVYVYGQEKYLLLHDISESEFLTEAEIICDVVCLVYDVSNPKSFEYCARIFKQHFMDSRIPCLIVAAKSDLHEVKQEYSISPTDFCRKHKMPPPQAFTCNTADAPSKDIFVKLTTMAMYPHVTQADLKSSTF
binder,measurement,value
Myo19 C-tail (aa 898-970)-FLAG (domain or fragment) not shown,binding result,binds
